T1: ADP-ribosyl cyclase 2 (CD157; BST1) (human, UniProt Q10588 33-293)
T1 construct: Endogenous lipid-anchored BST1 on human cell lines (A549, H226, U937) and on AML patient blasts; also called Bone marrow stromal antigen 1; cell-surface human BST1
T1 sequence: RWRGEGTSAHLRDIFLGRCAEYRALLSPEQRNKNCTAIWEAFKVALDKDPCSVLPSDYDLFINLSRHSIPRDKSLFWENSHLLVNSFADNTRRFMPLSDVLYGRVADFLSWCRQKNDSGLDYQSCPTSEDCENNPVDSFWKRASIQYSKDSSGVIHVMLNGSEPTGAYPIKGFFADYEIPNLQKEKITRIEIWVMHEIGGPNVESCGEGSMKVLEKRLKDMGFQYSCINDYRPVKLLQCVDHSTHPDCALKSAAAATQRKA

T2: cell surface BST1 protein (Homo sapiens, UniProt Q10588)
T2 construct: the antibodies were incubated with the BST1-expressing cells, A549 and H226, from human lung adenocarcinoma and human lung squamous carcinoma; endogenous in cells; host or cells: A549 (human lung adenocarcinoma) and H226 (human lung squamous carcinoma)
T2 sequence (Q10588 33-293): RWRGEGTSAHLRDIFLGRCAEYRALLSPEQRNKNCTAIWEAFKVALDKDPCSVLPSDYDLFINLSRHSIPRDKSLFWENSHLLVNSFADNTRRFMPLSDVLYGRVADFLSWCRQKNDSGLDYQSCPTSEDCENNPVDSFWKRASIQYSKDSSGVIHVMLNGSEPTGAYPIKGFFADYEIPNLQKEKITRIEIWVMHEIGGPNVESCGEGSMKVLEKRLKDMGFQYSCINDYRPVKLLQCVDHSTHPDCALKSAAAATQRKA

B1: BST1_A2 (murine, as selected in Example 2) (Fab, V domains shown)
VH: QAYLQQSGPELVKAGASVKMSCKASGYSFIEYTINWVKQSHGKSLEWIGNIDPYYGTTYYNQMFTGKATLTVDQSSNTAYMQLKSLTSEDSAVYFCARGSAWFPYWGQGTLVTVSA
VL: DIVMSQSPAIMSASPGEKVTMTCSASSSVTYMYWYQQKPGSSPRLLIYDTSNLASGVPVRFSGSGSGTSYSLTISRMEAEDTATYYCQQWSNYPLTFGAGTKLELKR
notes: also called anti-BST1 monoclonal antibody BST1_A2
B2: BST_A3: anti-BST1 monoclonal antibody, VH SEQ ID NO: 52, VK SEQ ID NO: 53 (antibody, listed as Mus musculus)
heavy: MKQSTIALALLPLLFTPVAKAQVQLQQSRAELVMPGASVKMSCKTSGYTFSDYWVHWVRQRPGQGLEWIGAIDGSDTFNDYSQKFKGRATLTVDESSSTVYMQLSSLTSEDSAVYYCARGGLLQYWGQGTTLTVSSAKTTPPSVYPLAPGSAAQTNSMVTLGCLVKGYFPEPVTVTWNSGSLSSGVHTFPAVLQSDLYTLSSSVTVPSSTWPSETVTCNVAHPASSTKVDKKIVPRDCHHHHHHH
light: MKYLLPTAAAGLLLLAAQPAMADIQLTQSPASLSASVGETVTITCRASENIYSYLAWYQQKQGKSPQLLVYNTKTLGEGVPSRFSGSGSGTQFSLKINSLQPEDFGSYYCQHHYGTPFTFGSGTKLEIKRADAAPTVSIFPPSSEQLTSGGASVVCFLNNFYPKDINVKWKIDGSERQNGVLNSWTDQDSKDSTYSMSSTLTLTKDEYERHNSYTCEATHKTSTSPIVKSFNRNES
B3: BST1_A3 (Fab, V domains shown)
VH: QVQLQQSRAELVMPGASVKMSCKTSGYTFSDYWVHWVRQRPGQGLEWIGAIDGSDTFNDYSQKFKGRATLTVDESSSTVYMQLSSLTSEDSAVYYCARGGLLQYWGQGTTLTVSS
VL: DIQLTQSPASLSASVGETVTITCRASENIYSYLAWYQQKQGKSPQLLVYNTKTLGEGVPSRFSGSGSGTQFSLKINSLQPEDFGSYYCQHHYGTPFTFGSGTKLEIKR
B4: BST1_A1: anti-BST1 monoclonal antibody, VH SEQ ID NO: 1, VK SEQ ID NO: 3, murine VH 1-80 / VK 4-74 (antibody, listed as Mus musculus)
heavy: MKQSTIALALLPLLFTPVAKAQVKLQQSGAELVRPGSSVKISCKASGYAFSNSWINWVKQRPGQGLEWIGQIYPGDYDTNYNGKFKGKATLTADYSSSTAYMQLNSLTSEDSAVYFCARGGSIYYGNLGFFDVWGAGTTVTVSSAKTTPPSVYPLAPGSAAQTNSMVTLGCLVKGYFPEPVTVTWNSGSLSSGVHTFPAVLQSDLYTLSSSVTVPSSTWPSETVTCNVAHPASSTKVDKKIVPRDCHHHHHHH
light: MKYLLPTAAAGLLLLAAQPAMAEMVLTQSPAIMSTSLGERVTMTCTASSRVSSSYLHWYQQKPGSSPKLWIYSTSNLASGVPARFSGSGSGTSYSLTISSMEAEDAATYYCHQYHRSPYTFGGGTKLEIKRADAAPTVSIFPPSSEQLTSGGASVVCFLNNFYPKDINVKWKIDGSERQNGVLNSWTDQDSKDSTYSMSSTLTLTKDEYERHNSYTCEATHKTSTSPIVKSFNRNES
B5: BST1_A1 (Fab, V domains shown)
VH: QVKLQQSGAELVRPGSSVKISCKASGYAFSNSWINWVKQRPGQGLEWIGQIYPGDYDTNYNGKFKGKATLTADYSSSTAYMQLNSLTSEDSAVYFCARGGSIYYGNLGFFDVWGAGTTVTVSS
VL: EMVLTQSPAIMSTSLGERVTMTCTASSRVSSSYLHWYQQKPGSSPKLWIYSTSNLASGVPARFSGSGSGTSYSLTISSMEAEDAATYYCHQYHRSPYTFGGGTKLEIKR
notes: also called anti-BST1 monoclonal antibody BST1_A1

How the values were obtained:
[1] = target: T1, ADP-ribosyl cyclase 2 (CD157; BST1); experiment: flow cytometry on BST1-expressing H226 and A549 cells, PE-labelled secondary antibody, geometric mean fluorescence; single antibody dilution, concentration not given
Experimental: (§1) The specificity of antibodies against the BST1 selected in Example 2 was tested by flow cytometry. To test the ability of the antibodies to bind to the cell surface BST1 protein, the antibodies were incubated with the BST1-expressing cells, A549 and H226, from human lung adenocarcinoma and human lung squamous carcinoma, respectively. Cells were washed in FACS buffer (DPBS, 2% FBS), centrifuged and resuspended in 100 μl of the diluted primary BST1 antibody (also diluted in FACS buffer). The antibody-A549 complex was incubated on ice for 60 min and then washed twice with FACS buffer as described above. The cell-antibody pellet was resuspended in 100 μl of the diluted secondary antibody (also diluted in FACS buffer) and incubated on ice for 60 min on ice. The pellet was washed as before and resuspended in 200 μl FACS buffer. The samples were loaded onto the BD FACScanto II flow sytometer and the data analyzed using the BD FACSdiva software.

[2] = target: T2, cell surface BST1 protein; experiment: Flow cytometry binding of anti-BST1 antibodies to BST1-expressing cells; settings: A549 and H226 cells
Experimental: as §1

A549 cells = experiment: MabZAP internalization assay, A549 cells; type: cell-based; settings: compared to anti-human IgG isotype control
Experimental: (§2) Internalization of BST1_A1 and BST1_A2 by H226 and A549 were investigated using a MabZap assay. […] (Advanced Targeting System, San Diego, Calif., IT-22-100). First, BST1 Fab was bound to the surface of the cells. Then, the MabZAP antibodies were bound to the primary antibodies. Next, the MabZAP complex was internalized by the cells.
(§3) The MabZAP assay was conducted as follows. Each of the cells was seeded at a density of 5×10^3 cells per well. The anti-BST1 monoclonal antibody or an isotype control human IgG was serially diluted then added to the cells and incubated for 15 min at 25° C. The MabZAP was then added and incubated for 72 hr at 37° C. Cell viability in the plates was detected by CellTiter-Glo® Luminescent Cell Viability Assay kit (Promega, G7571) and the plates were read and analysed using Promega Glomax. Cell death was proportional to the concentration of anti-BST1 monoclonal antibodies.

H226 cells = experiment: MabZAP internalization assay, H226 cells; type: cell-based; settings: compared to anti-human IgG isotype control
Experimental: as §2, §3

Molecule	binding result [1]	binding to cell-surface human BST1 [2]	internalization (MabZAP) (A549 cells)	internalization (MabZAP) (H226 cells)
B1	binds			
B2		bound effectively		
B3	binds			
B4		bound effectively	efficiently internalized	efficiently internalized
B5	binds			

— patent US20200231694A1, “PHARMACEUTICAL COMBINATIONS COMPRISING AN ANTI-BST-1 ANTIBODY AND A CYTIDINE ANALOGUE” (BERLIN-CHEMIE AG, priority 2017, published 2020)
